The numbers were not newly measured in paper PMC8093553, which cites them from elsewhere.

The target in the series is transferrin receptor (Homo sapiens) (UniProt P02786).
transferrin receptor (Homo sapiens), sequence (P02786 101-760): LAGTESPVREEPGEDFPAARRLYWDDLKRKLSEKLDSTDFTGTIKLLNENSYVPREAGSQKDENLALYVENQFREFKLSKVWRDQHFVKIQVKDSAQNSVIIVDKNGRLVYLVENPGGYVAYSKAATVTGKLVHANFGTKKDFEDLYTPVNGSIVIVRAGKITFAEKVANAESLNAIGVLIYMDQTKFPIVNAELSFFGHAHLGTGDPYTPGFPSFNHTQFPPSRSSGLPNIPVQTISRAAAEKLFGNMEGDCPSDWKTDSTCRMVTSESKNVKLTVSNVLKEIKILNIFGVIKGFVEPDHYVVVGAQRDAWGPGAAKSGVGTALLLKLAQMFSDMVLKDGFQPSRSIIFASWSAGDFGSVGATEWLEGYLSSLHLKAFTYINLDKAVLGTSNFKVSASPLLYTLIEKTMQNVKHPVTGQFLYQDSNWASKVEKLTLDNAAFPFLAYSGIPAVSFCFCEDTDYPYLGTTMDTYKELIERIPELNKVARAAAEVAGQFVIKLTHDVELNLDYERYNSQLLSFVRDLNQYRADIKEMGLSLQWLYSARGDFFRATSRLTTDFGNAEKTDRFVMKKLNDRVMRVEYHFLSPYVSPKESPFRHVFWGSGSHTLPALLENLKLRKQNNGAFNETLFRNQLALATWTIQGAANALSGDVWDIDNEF

A word on the Kd: it is the concentration at which binding is half-saturated. Regarding T7 peptide, the Kd is 10 nM.
